Numbering of substitutions follows the chain as printed. Values belong to the binder of their own block, whether it stands above or below them.
Experiments:
[1] = biological target: T1, recombinant human OX40/His fusion protein (Novoprotein, CB17) (human, UniProt P43489 29-216); experiment: BLI (Octet RED96), antibody on AHC sensor, OX40/His as analyte, test group 1
T1 construct: Bought protein
T1 sequence: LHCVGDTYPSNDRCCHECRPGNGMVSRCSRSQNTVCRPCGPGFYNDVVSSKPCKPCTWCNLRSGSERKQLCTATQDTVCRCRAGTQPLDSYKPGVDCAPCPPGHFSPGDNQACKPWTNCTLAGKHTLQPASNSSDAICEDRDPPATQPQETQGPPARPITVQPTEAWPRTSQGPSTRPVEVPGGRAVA
Method: (§1) All 17 antibodies in Table 4 were expressed by transient transfection of HEK293 cell, purified by Protein A chromatography, and assayed for and ranked by dissociation rate constant (koff). Briefly, antibodies binding affinities and kinetics were characterized by Octet® RED96 biolayer interferometry (Pall FortéBio LLC). Antibodies were captured by Anti-hIgG Fc Capture (AHC) Biosensors (Pall) at a concentration of 100 nM for 120 seconds. After that, sensors were dipped into running buffer (1× pH 7.2 PBS, 0.05% Tween 20, 0.1% BSA) for 60 seconds to check the baseline, then dipped into recombinant human OX40/His fusion protein (Novoprotein, CB17) at assigned concentration for 200 seconds to measure binding, followed by dipped into running buffer for 600 seconds for dissociation. The assay was conducted in four test groups (as listed in Table 5) all containing the EM1007-044c chimeric antibody as the basis for normalization. The association and dissociation curves were fitted to a 1:1 Langmuir binding model using ForteBio Data Analysis software (Pall) to obtain the off-rate constants as shown in Table 5 below. The off-rate of each antibody was compared to that of the EM1007-mAb044c chimeric antibody in the same test group obtained in parallel to produce the corresponding off-rate ratio, serving as a normalized index. […]

[2] = biological target: T1, recombinant human OX40/His fusion …; experiment: BLI (Octet RED96), antibody on AHC sensor, OX40/His as analyte, test group 2
Method: as §1

[3] = biological target: T1, recombinant human OX40/His fusion …; experiment: BLI (Octet RED96), antibody on AHC sensor, OX40/His as analyte, test group 4
Method: as §1

[4] = biological target: T1, recombinant human OX40/His fusion …; experiment: BLI (Octet RED96), antibody on AHC sensor, OX40/His as analyte, test group 3
Method: as §1

[5] = biological target: T2, recombinant human PD-L1/His fusion protein (Novoprotein, Cat. No. C315) (human, UniProt Q9NZQ7 19-239); experiment: BLI (Octet RED96), antibody on AHC sensor, PD-L1/His as analyte, test group 1
T2 construct: also called recombinant human PD-L1-his protein
T2 sequence (Q9NZQ7 19-239 limits assumed): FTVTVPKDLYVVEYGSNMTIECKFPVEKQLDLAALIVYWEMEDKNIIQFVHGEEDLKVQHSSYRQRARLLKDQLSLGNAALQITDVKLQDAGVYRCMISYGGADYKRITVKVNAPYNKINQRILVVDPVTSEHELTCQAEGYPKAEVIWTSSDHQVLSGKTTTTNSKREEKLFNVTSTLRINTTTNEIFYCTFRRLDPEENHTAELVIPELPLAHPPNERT
Excerpt: Based on titer and purity, 10 of the 50 humanized antibodies were selected and further assayed in two groups for dissociation rate constant (koff) as shown in Table 7. Chimeric antibody EM0005-86c having VH/VL sequences identical to EM0005-mAb86 (as provided in Table 6) was used as a positive control in each group and served as a basis for normalization. Briefly, antibodies were characterized for affinities and binding kinetics by Octet® RED96 biolayer interferometry (Pall FortéBio LLC). Anti-hIgG Fc Capture (AHC) Biosensors (Pall) with antibody captured at a concentration of 100 nM for 120 seconds were dipped into running buffer (1× pH 7.2 PBS, 0.05% Tween 20, 0.1% BSA) for 60 seconds to check the baseline, then dipped into a single concentration of recombinant human PD-L1/His fusion protein (Novoprotein, Cat. No. C315) to measure binding for 200 seconds, followed by dipped into running buffer to measure dissociation for 600 seconds. The association and dissociation curves were fitted to a 1:1 Langmuir binding model using FortéBio Data Analysis software (Pall). The off-rate ratios shown in Table 7 were calculated by off-rate of a humanized antibody to that of EM0005-86c in the same test group. The off-rate ratio serves as a normalized index, so that the humanized antibodies can be compared to one another across test groups. The lower off-rate ratio indicates higher affinity of an antibody for human PD-L1. HuEM0005-86-21 was selected for further investigation based on the purity and off-rate data.

B1: HuEM1007-044-6 (antibody, human IgG1, kappa, L234A L235A, V domains shown)
VH: EVQLVQSGAEVKKPGSSVKVSCKASGHTFSSSWMNWVRQAPGQGLEWMGRIYPGDEITNYNGKFKDRVTITADKSTSTAYMELSSLRSEDTAVYYCARDLLMPYWGQGTLVTVSS
VL: DIVMTQTPLSLPVTPGEPASISCRSSKSLLYSNGITYLYWYLQKPGQSPQLLIYQMSNLAPGVPDRFSSSGSGTDFTLKISRVEAEDVGVYYCAQNLELPFTFGQGTKLEIKR
notes: Humanized anti-OX40, human IgG1 LALA / kappa
Normalized Index (off-rate ratio to EM1007-mAb044c) [1]: 331%
koff [1]: 0.00111 s⁻¹

B2: EM1007-mAb044c-9 (antibody, human IgG1, kappa, L234A L235A, V domains shown)
VH: QVQLQQSGPELVKPGASVTISCKASGHAFSSSWMNWVKQRPGKGLEWIGRIYPGDEITNYNAKFKDKATLTADKSSSTAYMQLSSLTFEDSAVYFCARDLLMPYWGQGTLVTVSA
VL: B1 VL with P8A, L9F, L11N, P15L, E17T, P18S, Q50H, K79R, V90I, Q105S
Normalized Index (off-rate ratio to EM1007-mAb044c) [2]: 97%
koff [2]: 0.000309 s⁻¹

B4: EM1007-mAb044c-17 (antibody, human IgG1, kappa, L234A L235A, V domains shown)
VH: B1 VH with V5Q, T28A, R38K, A40R, Q43K, M48I, G62A, R67K, V68A, I70L
VL: DIVMTQTAFSNPVTLGTSASISCRSSKSLLYSNAITYLYWYLQKPGQSPHLLIYQMSNLAPGVPDRFSSSGSGTDFTLRISRVEAEDVGIYYCAQNLELPFTFGSGTKLEIKR
Normalized Index (off-rate ratio to EM1007-mAb044c) [3]: 92%
koff [3]: 0.000256 s⁻¹

B5: HuEM1007-044-1 (antibody, human IgG1, kappa, L234A L235A, V domains shown)
VH: B1 VH with H27G
VL: B1 VL with S69G
notes: as for B1
Normalized Index (off-rate ratio to EM1007-mAb044c) [1]: 306%
koff [1]: 0.00103 s⁻¹

B6: HuEM1007-044-8 (antibody, human IgG1, kappa, L234A L235A, V domains shown)
VH: B1 VH with R38K, Q43K, M48I, R67K, I70L
VL: B1 VL
notes: as for B1
Normalized Index (off-rate ratio to EM1007-mAb044c) [2]: 317%
koff [2]: 0.00101 s⁻¹

B11: EM1007-mAb044c-12 (antibody, human IgG1, kappa, L234A L235A, V domains shown)
VH: B2 VH with A62G
VL: B1 VL with S69G
Normalized Index (off-rate ratio to EM1007-mAb044c) [2]: 255%
koff [2]: 0.00081 s⁻¹

B12: HuEM1007-044-3 (antibody, human IgG1, kappa, L234A L235A, V domains shown)
VH: B1 VH with M48I, I70L
VL: B1 VL with S69G
notes: as for B1
Normalized Index (off-rate ratio to EM1007-mAb044c) [1]: 255%
koff [1]: 0.000859 s⁻¹

B13: EM1007-mAb044c-13 (antibody, human IgG1, kappa, L234A L235A, V domains shown)
VH: B1 VH with H27G
VL: B4 VL with A34G
Normalized Index (off-rate ratio to EM1007-mAb044c) [4]: 427%
koff [4]: 0.0013 s⁻¹

B14: EM1007-mAb044c-11 (antibody, human IgG1, kappa, L234A L235A, V domains shown)
VH: B2 VH
VL: B4 VL
Normalized Index (off-rate ratio to EM1007-mAb044c) [2]: 100%
koff [2]: 0.000317 s⁻¹

B16: HuEM1007-044-4 (antibody, human IgG1, kappa, L234A L235A, V domains shown)
VH: B1 VH with R38K, Q43K, M48I, R67K, I70L
VL: B1 VL with S69G
notes: as for B1
Normalized Index (off-rate ratio to EM1007-mAb044c) [4]: 486%
koff [4]: 0.00148 s⁻¹

B17: EM0005-86c-1 (antibody, V domains shown)
VH: QVQLQQSGAELVRPGSSVKMSCKTSGYTFTTYGINWVKQRPGQGLEWIGYIYIGNAYTEYNEKFKGKATLTSDPSSRTAYMQLSSLTSEDSAIYFCARDLMVIAPKTMDYWGQGTSVTVSS
VL: DIQMNQSHKFMSTSVGDRVSITCKASQDVGTAVAWYQQKPGQSPKLLIYWASTRHTGVPDRFTGGGSGTDFTLTISNVQSEDLADYFCQQYSSYPYTFGGGTKLEMK
notes: Chimeric variant of EM0005-86c
Off-Rate Ratio to EM0005-86c [5]: 69%
koff [5]: 0.000188 s⁻¹

The remaining lines, values ahead:

Normalized Index (off-rate ratio to EM1007-mAb044c) [3]: 340%
koff [3]: 0.000949 s⁻¹
B3: EM1007-mAb044c-15 (antibody, human IgG1, kappa, L234A L235A, V domains shown)
VH: B1 VH with H27G, A40R, Q43K, G62A
VL: B4 VL

Normalized Index (off-rate ratio to EM1007-mAb044c) [1]: 281%
koff [1]: 0.000944 s⁻¹
B7: HuEM1007-044-2 (antibody, human IgG1, kappa, L234A L235A, V domains shown)
VH: B1 VH
VL: B1 VL with S69G
notes: as for B1

Normalized Index (off-rate ratio to EM1007-mAb044c) [2]: 343%
koff [2]: 0.00109 s⁻¹
B8: HuEM1007-044-7 (antibody, human IgG1, kappa, L234A L235A, V domains shown)
VH: B1 VH with M48I, I70L
VL: B1 VL
notes: as for B1

Normalized Index (off-rate ratio to EM1007-mAb044c) [3]: 341%
koff [3]: 0.000952 s⁻¹
B9: HuEM1007-044-14 (antibody, human IgG1, kappa, L234A L235A, V domains shown)
VH: B1 VH with H27G, A40R, Q43K, G62A
VL: B1 VL with G34A
notes: as for B1

Normalized Index (off-rate ratio to EM1007-mAb044c) [2]: 94%
koff [2]: 0.000299 s⁻¹
B10: EM1007-mAb044c-10 (antibody, human IgG1, kappa, L234A L235A, V domains shown)
VH: B2 VH with A62G
VL: B4 VL

Normalized Index (off-rate ratio to EM1007-mAb044c) [1]: 243%
koff [1]: 0.000818 s⁻¹
B15: HuEM1007-044-5 (antibody, human IgG1, kappa, L234A L235A, V domains shown)
VH: B1 VH with H27G
VL: B1 VL
notes: as for B1

Off-Rate Ratio to EM0005-86c [5]: 88%
koff [5]: 0.000239 s⁻¹
B18: HuEM0005-86-21 (antibody, human IgG1, kappa, L234A L235A, V domains shown)
VH: QVQLVQSGSELKKPGASVKVSCKASGYTFTTYGINWVRQAPGQGLEWMGYIYIGNAYTEYNEKFKGRFVFSLDTSVSTAYLQICSLKAEDTAVYYCARDLMVIAPKTMDYWGQGTTVTVSS
VL: DIQMTQSPSSVSASVGDRVTITCKASQDVGTAVAWYQQKPGKAPKLLIYWASTRHTGVPSRFSGSGSGTDFTLTISSLQPEDFATYYCQQYSSYPYTFGGGTKVEIKR
notes: Humanized anti-PD-L1

— patent US20250282881A1 (SHANGHAI EPIMAB BIOTHERAPEUTICS, published 2025)
